Numbering of substitutions follows the chain as printed.
T1: CD300a antigen (12449-H08H, Sino Biological) (UniProt Q9UGN4 18-180)
T1 construct: Bought recombinant antigen
T1 sequence (looked up): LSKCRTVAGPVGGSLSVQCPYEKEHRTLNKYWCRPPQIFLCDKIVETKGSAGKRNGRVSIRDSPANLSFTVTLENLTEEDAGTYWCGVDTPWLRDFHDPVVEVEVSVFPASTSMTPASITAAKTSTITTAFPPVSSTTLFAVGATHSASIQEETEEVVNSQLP

T2: mouse CD300c antigen (mouse)
T2 sequence (A2A7V7 whole entry, looked up): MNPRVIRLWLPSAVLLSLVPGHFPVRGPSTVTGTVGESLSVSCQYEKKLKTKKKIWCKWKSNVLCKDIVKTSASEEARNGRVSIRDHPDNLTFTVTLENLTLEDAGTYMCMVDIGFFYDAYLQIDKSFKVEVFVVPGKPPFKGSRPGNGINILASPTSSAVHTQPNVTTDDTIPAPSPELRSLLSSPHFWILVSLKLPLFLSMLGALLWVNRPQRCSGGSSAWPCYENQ

T3: CD300c antigen (11832-H08H, Sino Biological) (UniProt Q08708 21-183)
T3 construct: Bought recombinant antigen coated on ELISA plates; the same entry is used for it
T3 sequence (looked up): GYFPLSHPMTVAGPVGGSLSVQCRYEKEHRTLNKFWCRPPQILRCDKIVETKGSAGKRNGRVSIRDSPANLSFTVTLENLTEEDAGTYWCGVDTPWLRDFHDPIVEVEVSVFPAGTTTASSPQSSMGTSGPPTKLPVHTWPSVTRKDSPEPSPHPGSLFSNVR

B1: anti-CD300c monoclonal antibody CL7 (antibody, V domains shown)
VH: EVQLLESGGGLVQPGGSLRLSCAASGFTFSRYAMSWVRQAPGKGLEWVSAISGSGGSTYYADSVKGRFTISRDNSKNTLYLQMNSLRAEDTAVYYCARSSQGIFDIWGQGTLVTVSS
VL: QSVLTQPPSASGTPGQRVTISCSGNNIGTRRVHWYQQLPDTAPKLLIYSKNNRPSGVPDRFSGSKSGTSASLAISGLRSEDEADYYCAAWDDSLSGPVFGGGTKLTVL
notes: expressed as heavy and light chains in 293T cells, protein A purified
B2: anti-CD300c monoclonal antibody CL10 (antibody, V domains shown)
VH: EVQLLESGGGLVQPGGSLRLSCAASGFTFSSYGMHWVRQAPGKGLEWVSAISGSGGSTYYADSVKGRFTISRDNSKNTLYLQMNSLRAEDTAVYYCASGYGLMDVWGQGTLVTVSS
VL: QSVLTQPPSASGTPGQRVTISCTRSSGIIASNYVQWYQQLPGTAPKLLIYRNNQRPSGVPDRFSGSKSGTSASLAISGLRSEDEADYYCSSYAGNNNLVFGGGTKLTVL
notes: as for B1
B3: anti-CD300c monoclonal antibody SL18 (antibody, V domains shown)
VH: RVQLLESGGGLVQPGGSLRLSCAASGFTFSDYHMHWVRQAPGKGLEWVSTISSSGGYTYYAESVKSRFTISRDNSKNTLYLQMNSLRAEDTAVYYCARSIRLPLDYWGQGTLVTVSS
VL: QSVLTQPPSASGTPGQRVTISCSGNNIGSKGVHWYQQLPGTAPKLLIYEDSKRPSGVRDRFSGSKSGTSASLAISGLRSEDEADYYCQSYDSTKGVVFGGGTKLTVL
notes: as for B1
B4: anti-CD300c monoclonal antibody SK14 (antibody, V domains shown)
VH: EVQLLESGGGLVQPGGSLRLSCAASGFTFSNFAIAWVRQAPGKGLEWVSAISGRGTSTYYADSVKGRFTISRDNSKNTLYLQMNSLRAEDTAVYYCARGVSGFDSWGQGTLVTVSS
VL: EIVLTQSPGTLSLSPGERATLSCRASQSISSHLAWYQQKPGQAPRLLIYDTSNRATGIPDRFSGSGSGTDFTLTISRLEPEDFAVYYCQQSYSTPFTFGQGTKVEIK
notes: as for B1
B5: anti-CD300c monoclonal antibody CL5 (antibody, V domains shown)
VH: RVQLLESGGGLVQPGGSLRLSCAASGFTFSSYAMHWVRQAPGKGLEWVSSISGGGYGTYYADSVKGRFTISRDNSKNTLYLQMNSLRAEDTAVYYCARSTVWAFDIWGQGTLVTVSS
VL: QSVLTQPPSASGTPGQRVTISCSGNNIGSKSVHWYQQLPGTAPKLLIYDVSKRPSERPDRFSGSKSGTSASLAISDLRSEDEADYYCQSFDSSGTWIFGGGTKLTVL
notes: as for B1
B6: anti-CD300c monoclonal antibody SK13 (antibody, V domains shown)
VH: RVQLLESGGGLVQPGGSLRLSCAASGFTFSDYAMSWVRQAPGKGLEWVSSISSSSSYIYYTDSVKGRFTISRDNSKNTLYLQMNSLRAEDTAVYYCARGGYGFDYWGQGTLVTVSS
VL: EIVLTQSPGTLSLSPGERATLSCRASQSISSYLNWYQQKPGQAPRLLIYSASSRPQGIPDRFSGSGSGTDFTLTISRLEPEDFAVYYCQQYDDLPFTFGQGTKVEIK
notes: as for B1
B7: anti-CD300c monoclonal antibody SK12 (antibody, V domains shown)
VH: RVQLLESGGGLVQPGGSLRLSCAASGFTFSSYAMHWVRQAPGKGLEWVSAISGSGGDTYHADSVKGRFTISRDNSKNTLYLQMNSLRAEDTAVYYCTRGLSGFDYWGQGTLVTVSS
VL: EIVLTQSPGTLSLSPGERATLSCRASQSISSYLNWYQQKPGQAPRLLIYDASNRAPGIPDRFSGSGSGTDFTLTISRLEPEDFAVYYCQQSYSIPITFGQGTKVEIKF
notes: as for B1
B8: anti-CD300c monoclonal antibody CL6 (antibody, V domains shown)
VH: EVQLLESGGGLVQPGGSLRLSCAASGFTFSSYGMHWVRQAPGKGLEWVSAISGSGGSTYYADSVKGRFTISRDNSKNTLYLQMNSLRAEDTAVYYCAVSGAGRGFFDYWGQGTLVTVSS
VL: QSVLTQPPSASGTPGQRVTISCSGSSSNIGSNYVYWYQQLPGTAPKLLIYEDNKRPSGVPDRFSGSKSGTSASLAISGLRSEDEADYYCSSYTSSSTVIFGGGTKLTVL
notes: as for B1
B9: anti-CD300c monoclonal antibody CL4 (antibody, V domains shown)
VH: RVQLLESGGGLVQPGGSLRLSCAASGFTFGSNYMSWVRQAPGKGLEWVSTISGSGTSTYYADSLKGRFTISRDNSKNTLYLQMNSLRAEDTAVYYCARGMWGMDVWGQGTLVTVSS
VL: QSVLTQPPSASGTPGQRVTISCTGKHRHTVNWYQLLPGTAPKLLIYLDSERPSGVPDRFSGSKSGTSASLAISGLRSEDEADYYCQSYDSSSVVFGGGTKLTVL
notes: as for B1
B10: anti-CD300c monoclonal antibody SK17 (antibody, V domains shown)
VH: EVQLLESGGGLVQPGGSLRLSCAASGFTFSSYYWSWVRQAPGKGLEWVSTITGSGGSTDYANSVKGRFTISRDNSKNTLYLQMNSLRAEDTAVYYCATGGGIFDYWGQGTLVTVSS
VL: EIVLTQSPGTLSLSPGERATLSCQASQTISNYLNWYQQKPGQAPRLLIYDASNRATGIPDRFSGSGSGTDFTLTISRLEPEDFAVYYCQQYNSYPPSFGQGTKVEIK
notes: as for B1
B11: anti-CD300c monoclonal antibody SK11 (antibody, V domains shown)
VH: B7 VH with S31T, A33G, D57S, H60Y, T97A, F103L
VL: B4 VL with A25S, S28G, S30T, S31N, H32Y, T51A, F96L
notes: as for B1
B12: anti-CD300c monoclonal antibody CK2 (antibody, V domains shown)
VH: B2 VH with G56T, T58I, S98R, Y100G, G101T, L102A, M103F, V105Y
VL: B4 VL with S28R, I29S, S30D, S31N, H32Y, T51A, I106T
notes: as for B1
B13: anti-CD300c monoclonal antibody CL9 (antibody, V domains shown)
VH: B1 VH with R31S, A33Y, M34W, S99I, S100D, Q101V, G102Y, I103G
VL: QSVLTQPPSASGTPGQRVTISCSGSTSNIGTNYVYWYQQLPGTAPKLLIYDNNNRPSGVPDRFSGSKSGTSASLAISGLRSEDEADYYCQTWDSSTDVVFGGGTKLTVL
notes: as for B1
B14: anti-CD300c monoclonal antibody CK1 (antibody, V domains shown)
VH: EVQLLESGGGLVQPGGSLRLSCAASGFTFSRYAMTWVRQAPGKGLEWVSSMSGTGGTTYYADSVKGRFTISRDNSKNTLYLQMNSLRAEDTAVYYCARGAYGFDHWGQGTLVTVSS
VL: EIVLTQSPGTLSLSPGERATLSCRASQSIGNYLNWYQQKPGQAPRLLIYDASNLETGIPDRFSGSGSGTDFTLTISRLEPEDFAVYYCQQSSAIPYTFGQGTKVEIK
notes: Selected as scFv phage clone (kappa library); expressed from separate heavy and light chain vectors in 293T cells, purified on protein A

These binders were tested against T1, CD300a antigen (12449-H08H, Sino …) (assay: binding ELISA, antigen coated on plate).

Binder | binding result
B1 | no binding

These binders were tested against T2, mouse CD300c antigen (assay: cell-based or functional assay).

Binder | cancer cell proliferation inhibitory effect, CT26 mouse colorectal cancer cell line, CCK-8, 10 ug/mL antibody, 5 days [%]
B2 | 15
B1 | 66
B3 | 38

Each binder was assayed against T3, CD300c antigen (11832-H08H, Sino …) (assay: binding ELISA, CD300c antigen coated).

Binder | EC50 [µg/mL]
B4 | ≤ 0.2
B5 | ≤ 0.2
B6 | ≤ 0.2
B7 | ≤ 0.2
B8 | ≤ 0.2
B9 | ≤ 0.2
B10 | ≤ 0.2
B2 | ≤ 0.2
B11 | ≤ 0.2
B12 | ≤ 0.2
B1 | ≤ 0.2
B13 | ≤ 0.2
B14 | ≤ 0.2
B3 | ≤ 0.2
